Laboratory results from article PMC8386582 (Biomaterials, 2020).

Molecular target: CD19 (Homo sapiens (Raji, SU-DHL-7 cells), UniProt P15391)
Experiment: flow cytometry on cells

CD19, sequence (P15391 20-556): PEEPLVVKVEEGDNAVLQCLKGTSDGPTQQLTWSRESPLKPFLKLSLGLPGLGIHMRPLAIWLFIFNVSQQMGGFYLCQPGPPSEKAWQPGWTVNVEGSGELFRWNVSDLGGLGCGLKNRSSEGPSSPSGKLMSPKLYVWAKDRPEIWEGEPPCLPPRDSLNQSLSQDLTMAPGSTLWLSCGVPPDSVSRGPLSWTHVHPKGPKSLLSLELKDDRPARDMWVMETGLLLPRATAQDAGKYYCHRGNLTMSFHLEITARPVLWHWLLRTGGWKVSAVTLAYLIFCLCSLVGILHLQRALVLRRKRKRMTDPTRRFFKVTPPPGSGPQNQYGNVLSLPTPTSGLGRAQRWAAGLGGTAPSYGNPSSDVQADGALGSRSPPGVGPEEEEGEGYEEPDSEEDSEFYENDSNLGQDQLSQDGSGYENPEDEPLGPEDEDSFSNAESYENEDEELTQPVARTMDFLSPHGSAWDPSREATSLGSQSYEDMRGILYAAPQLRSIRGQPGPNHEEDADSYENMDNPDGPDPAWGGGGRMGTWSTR

B1: aCD19A (anti-CD19-A192) Nanoworm (scFv, V domains shown)
VH: QVQLQQSGAELVRPGSSVKISCKASGYAFSSYWMNWVKQRPGQGLEWIGQIWPGDGDTNYNGKFKGKATLTADESSSTAYMQLSSLASEDSAVYFCARRETTTVGRYYYAMDYWGQGTTVTVSS
VL: DIQLTQSPASLAVSLGQRATISCKASQSVDYDGDSYLNWYQQIPGQPPKLLIYDASNLVSGIPPRFSGSGSGTDFTLNIHPVEKVDAATYHCQQSTEDPWTFGGGTKLEIK
binding result: binds
